According to patent US9176064B2, “Bisubstrate fluorescent probes for protein kinase CK2” (University of Tartu, priority 2012, dated 2015):
Where a SMILES comes first, the peptide text is derived from it. [ ]: non-standard residue; d: D form. The star is where a group is joined. X1 = O=C(CCCCCCCn1cnc2c(Br)c(Br)c(Br)c(Br)c21)*

Experiments:
Experiment in all cases: Kinase panel residual activity
Format in all cases: biochemical
Details in all cases: compound at 1 micromolar
TrkA = TrkA (Homo sapiens, UniProt P04629)
EPH-A2 = EPH-A2 (Homo sapiens, UniProt P29317)
Chain of EPH-A2 (P29317 24-976, species assumed): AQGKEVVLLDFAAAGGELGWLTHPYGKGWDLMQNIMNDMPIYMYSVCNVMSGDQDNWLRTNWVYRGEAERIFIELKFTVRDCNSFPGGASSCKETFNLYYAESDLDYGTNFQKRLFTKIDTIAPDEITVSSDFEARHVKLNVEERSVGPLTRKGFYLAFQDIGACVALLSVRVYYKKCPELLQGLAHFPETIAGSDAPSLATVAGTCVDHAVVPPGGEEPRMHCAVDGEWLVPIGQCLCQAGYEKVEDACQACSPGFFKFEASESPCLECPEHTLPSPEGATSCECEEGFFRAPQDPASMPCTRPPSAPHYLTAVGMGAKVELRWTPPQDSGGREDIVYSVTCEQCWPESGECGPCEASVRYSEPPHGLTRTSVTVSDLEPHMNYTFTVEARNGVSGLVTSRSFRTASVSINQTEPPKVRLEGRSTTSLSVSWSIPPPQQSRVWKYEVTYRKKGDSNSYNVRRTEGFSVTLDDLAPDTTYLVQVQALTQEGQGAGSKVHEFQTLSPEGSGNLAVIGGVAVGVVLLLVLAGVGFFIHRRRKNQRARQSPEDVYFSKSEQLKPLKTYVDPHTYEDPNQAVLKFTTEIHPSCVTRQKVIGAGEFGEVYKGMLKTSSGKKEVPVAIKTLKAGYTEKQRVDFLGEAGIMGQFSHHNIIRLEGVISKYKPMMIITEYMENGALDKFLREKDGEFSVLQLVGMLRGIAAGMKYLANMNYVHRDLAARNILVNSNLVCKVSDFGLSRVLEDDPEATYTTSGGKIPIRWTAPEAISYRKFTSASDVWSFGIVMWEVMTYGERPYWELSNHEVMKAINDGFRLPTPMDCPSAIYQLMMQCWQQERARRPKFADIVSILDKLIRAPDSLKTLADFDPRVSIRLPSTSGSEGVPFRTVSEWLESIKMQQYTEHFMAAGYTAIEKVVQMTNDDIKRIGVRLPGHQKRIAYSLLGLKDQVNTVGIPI

MST4 = MST4 (Homo sapiens, UniProt Q9P289)
SRPK1 = SRPK1 (Homo sapiens, UniProt Q96SB4)
CLK2 = CLK2 (Homo sapiens, UniProt P49760)
Chain of CLK2 (P49760 whole entry, species assumed): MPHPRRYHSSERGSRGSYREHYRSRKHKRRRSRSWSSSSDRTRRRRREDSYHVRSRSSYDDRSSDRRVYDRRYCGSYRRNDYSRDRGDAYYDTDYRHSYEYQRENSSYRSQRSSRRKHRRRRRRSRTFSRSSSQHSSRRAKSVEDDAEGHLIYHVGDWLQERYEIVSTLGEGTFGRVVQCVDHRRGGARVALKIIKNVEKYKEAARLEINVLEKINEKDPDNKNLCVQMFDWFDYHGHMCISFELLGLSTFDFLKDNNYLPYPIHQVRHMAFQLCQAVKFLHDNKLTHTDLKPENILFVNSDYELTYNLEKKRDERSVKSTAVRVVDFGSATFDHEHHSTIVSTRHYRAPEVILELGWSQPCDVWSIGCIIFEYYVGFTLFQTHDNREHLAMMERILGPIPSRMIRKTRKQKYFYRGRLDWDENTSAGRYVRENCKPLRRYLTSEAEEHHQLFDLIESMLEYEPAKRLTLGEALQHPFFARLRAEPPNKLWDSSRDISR

MEKK1 = MEKK1 (Homo sapiens, UniProt Q13233)
PAK6 = PAK6 (Homo sapiens, UniProt Q9NQU5)
Chain of PAK6 (Q9NQU5 whole entry, species assumed): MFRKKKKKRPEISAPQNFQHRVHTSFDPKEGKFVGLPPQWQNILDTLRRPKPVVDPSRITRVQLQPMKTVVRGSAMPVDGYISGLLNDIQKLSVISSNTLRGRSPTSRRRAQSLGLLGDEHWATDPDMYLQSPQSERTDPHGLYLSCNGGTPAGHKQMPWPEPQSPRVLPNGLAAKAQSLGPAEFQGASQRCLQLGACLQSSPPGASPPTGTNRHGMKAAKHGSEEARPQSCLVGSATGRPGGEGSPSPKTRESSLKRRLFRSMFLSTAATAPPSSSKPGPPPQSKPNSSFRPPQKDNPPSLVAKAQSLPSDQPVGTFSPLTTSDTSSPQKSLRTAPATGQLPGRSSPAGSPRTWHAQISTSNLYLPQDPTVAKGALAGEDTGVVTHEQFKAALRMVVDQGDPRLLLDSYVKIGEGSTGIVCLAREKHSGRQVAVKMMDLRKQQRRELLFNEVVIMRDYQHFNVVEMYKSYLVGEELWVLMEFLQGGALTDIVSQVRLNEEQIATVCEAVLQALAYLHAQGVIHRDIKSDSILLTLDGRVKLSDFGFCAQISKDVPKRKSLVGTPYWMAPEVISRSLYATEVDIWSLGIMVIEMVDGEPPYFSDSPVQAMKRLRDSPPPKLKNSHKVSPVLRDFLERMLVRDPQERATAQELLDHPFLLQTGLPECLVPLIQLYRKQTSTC

ROCK 2 = ROCK 2 (Homo sapiens, UniProt O75116)
CDK9-Cyclin T1 = CDK9-Cyclin T1 (Homo sapiens, UniProt P50750)
Chain of CDK9-Cyclin T1 (P50750 whole entry): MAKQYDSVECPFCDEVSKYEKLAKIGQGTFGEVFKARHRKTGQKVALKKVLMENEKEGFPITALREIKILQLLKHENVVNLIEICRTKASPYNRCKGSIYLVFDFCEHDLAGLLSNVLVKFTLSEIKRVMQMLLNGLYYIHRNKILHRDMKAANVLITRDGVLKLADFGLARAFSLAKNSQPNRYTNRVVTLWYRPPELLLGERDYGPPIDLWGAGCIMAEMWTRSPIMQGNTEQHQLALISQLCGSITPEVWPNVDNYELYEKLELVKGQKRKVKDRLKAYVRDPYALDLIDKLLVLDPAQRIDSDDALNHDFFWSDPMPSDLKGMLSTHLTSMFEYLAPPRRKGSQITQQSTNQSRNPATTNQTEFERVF
Chain of CDK9-Cyclin T1 (O60563 whole entry partner): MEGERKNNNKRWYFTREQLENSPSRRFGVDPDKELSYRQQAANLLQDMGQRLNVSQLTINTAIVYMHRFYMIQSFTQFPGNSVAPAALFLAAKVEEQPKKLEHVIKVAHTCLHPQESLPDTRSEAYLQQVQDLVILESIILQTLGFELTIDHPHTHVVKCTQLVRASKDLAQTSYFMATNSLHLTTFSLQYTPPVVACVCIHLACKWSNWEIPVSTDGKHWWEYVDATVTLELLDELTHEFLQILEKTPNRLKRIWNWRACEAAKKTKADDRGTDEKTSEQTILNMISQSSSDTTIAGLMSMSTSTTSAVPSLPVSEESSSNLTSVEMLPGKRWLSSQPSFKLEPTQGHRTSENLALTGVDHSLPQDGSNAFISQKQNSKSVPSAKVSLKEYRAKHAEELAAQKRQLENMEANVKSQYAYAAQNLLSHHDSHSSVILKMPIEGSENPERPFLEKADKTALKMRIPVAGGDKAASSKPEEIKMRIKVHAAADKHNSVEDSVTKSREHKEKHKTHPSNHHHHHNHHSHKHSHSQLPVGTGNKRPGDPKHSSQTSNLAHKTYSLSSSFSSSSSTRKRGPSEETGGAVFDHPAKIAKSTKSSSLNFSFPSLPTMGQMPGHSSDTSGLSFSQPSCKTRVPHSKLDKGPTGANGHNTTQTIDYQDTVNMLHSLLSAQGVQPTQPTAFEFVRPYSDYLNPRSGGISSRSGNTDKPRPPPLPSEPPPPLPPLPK

JAK2 = JAK2 (Homo sapiens, UniProt O60674)
PKA = PKA (Homo sapiens, UniProt P17612)
IRAK4 = molecular target: T1, IRAK4 (Homo sapiens, UniProt Q9NWZ3)
T1 sequence (Q9NWZ3 1-460): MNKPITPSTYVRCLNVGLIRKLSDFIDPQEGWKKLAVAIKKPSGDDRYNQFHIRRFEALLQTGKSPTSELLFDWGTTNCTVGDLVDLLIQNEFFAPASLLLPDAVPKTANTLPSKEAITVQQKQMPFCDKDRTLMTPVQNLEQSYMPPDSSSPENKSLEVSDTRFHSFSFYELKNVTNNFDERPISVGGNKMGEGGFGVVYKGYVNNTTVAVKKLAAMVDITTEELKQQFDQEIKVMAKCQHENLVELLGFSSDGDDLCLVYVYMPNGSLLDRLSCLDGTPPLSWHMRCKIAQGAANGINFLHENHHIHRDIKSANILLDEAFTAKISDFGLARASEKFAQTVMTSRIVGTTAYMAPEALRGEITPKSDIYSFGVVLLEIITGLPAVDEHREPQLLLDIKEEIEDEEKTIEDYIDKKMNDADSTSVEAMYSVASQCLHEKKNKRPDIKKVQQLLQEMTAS

MARK2 = MARK2 (Homo sapiens, UniProt Q7KZI7)
TIE2 = TIE2 (Homo sapiens, UniProt Q02763)
IRR = IRR (Homo sapiens, UniProt P14616)
ERK1 = ERK1 (Homo sapiens, UniProt P27361)
Chain of ERK1 (P27361 whole entry, species assumed): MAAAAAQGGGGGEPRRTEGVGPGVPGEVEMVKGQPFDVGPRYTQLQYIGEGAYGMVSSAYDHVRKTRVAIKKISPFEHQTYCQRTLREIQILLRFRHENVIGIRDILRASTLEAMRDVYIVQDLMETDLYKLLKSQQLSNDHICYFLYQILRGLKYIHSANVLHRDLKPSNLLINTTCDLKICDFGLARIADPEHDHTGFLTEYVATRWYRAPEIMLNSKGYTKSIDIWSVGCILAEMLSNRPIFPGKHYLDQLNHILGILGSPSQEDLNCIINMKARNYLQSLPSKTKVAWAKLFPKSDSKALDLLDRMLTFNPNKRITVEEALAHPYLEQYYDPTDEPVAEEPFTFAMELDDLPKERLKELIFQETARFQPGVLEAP

HIPK1 = HIPK1 (Homo sapiens, UniProt Q86Z02)
PIM2 = PIM2 (Homo sapiens, UniProt Q9P1W9)
ZAP70 = molecular target: T2, ZAP70 (Homo sapiens, UniProt P43403)
T2 sequence (P43403 1-619): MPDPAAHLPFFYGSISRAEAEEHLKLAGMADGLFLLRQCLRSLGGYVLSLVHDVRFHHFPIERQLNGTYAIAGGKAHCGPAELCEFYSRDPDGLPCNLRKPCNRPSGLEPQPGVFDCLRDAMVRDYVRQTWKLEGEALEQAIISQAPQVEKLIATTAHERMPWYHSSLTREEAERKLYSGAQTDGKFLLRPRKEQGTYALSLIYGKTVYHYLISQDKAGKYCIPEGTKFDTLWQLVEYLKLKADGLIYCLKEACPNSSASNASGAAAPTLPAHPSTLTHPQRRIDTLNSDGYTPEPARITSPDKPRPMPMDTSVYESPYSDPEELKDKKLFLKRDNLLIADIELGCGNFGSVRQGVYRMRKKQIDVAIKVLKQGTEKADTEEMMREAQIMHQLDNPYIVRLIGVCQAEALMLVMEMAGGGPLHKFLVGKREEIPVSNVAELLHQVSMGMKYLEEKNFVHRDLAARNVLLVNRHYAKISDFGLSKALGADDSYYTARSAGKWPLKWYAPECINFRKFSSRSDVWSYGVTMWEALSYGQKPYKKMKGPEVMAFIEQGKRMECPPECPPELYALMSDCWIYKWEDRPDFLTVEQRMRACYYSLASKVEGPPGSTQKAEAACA

IGF-1R = IGF-1R (Homo sapiens, UniProt P08069)
Chain of IGF-1R (P08069 31-1367, species assumed): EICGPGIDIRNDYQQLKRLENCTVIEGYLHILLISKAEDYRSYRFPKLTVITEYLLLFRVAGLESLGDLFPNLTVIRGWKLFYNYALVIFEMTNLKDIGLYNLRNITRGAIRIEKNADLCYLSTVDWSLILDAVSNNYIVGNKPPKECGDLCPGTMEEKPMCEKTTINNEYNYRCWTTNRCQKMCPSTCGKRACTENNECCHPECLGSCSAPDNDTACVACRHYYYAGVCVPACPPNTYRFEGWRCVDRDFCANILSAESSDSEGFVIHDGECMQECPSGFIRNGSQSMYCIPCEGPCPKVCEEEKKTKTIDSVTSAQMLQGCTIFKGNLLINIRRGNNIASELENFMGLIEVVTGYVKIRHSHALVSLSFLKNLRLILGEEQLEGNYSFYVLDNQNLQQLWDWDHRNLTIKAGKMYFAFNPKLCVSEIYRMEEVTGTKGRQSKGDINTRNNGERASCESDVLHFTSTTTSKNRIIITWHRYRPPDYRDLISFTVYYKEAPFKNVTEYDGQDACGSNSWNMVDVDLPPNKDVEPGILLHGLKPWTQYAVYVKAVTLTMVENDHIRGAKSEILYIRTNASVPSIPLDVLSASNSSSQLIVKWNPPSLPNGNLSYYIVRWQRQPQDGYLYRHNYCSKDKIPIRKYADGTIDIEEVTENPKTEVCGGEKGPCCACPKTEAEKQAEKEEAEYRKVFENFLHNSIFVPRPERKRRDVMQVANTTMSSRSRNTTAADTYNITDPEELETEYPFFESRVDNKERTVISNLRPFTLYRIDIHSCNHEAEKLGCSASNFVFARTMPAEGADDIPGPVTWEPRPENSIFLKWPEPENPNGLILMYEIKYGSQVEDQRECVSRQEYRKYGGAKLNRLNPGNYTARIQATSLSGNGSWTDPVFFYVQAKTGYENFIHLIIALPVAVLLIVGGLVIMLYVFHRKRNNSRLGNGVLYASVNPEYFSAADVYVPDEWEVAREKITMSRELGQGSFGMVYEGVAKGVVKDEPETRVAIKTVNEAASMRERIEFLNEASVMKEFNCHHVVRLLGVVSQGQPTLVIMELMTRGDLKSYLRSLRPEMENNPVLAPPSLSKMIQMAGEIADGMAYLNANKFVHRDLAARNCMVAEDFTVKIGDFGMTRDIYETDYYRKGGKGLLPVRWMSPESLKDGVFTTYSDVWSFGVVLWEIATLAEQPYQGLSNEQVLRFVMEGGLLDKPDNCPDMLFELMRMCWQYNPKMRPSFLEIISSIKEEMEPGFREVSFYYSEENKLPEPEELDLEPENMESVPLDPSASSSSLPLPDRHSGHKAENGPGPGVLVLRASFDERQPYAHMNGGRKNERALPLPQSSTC

p38g MAPK = molecular target: T3, p38g MAPK (Homo sapiens, UniProt P53778)
T3 sequence (P53778 1-367): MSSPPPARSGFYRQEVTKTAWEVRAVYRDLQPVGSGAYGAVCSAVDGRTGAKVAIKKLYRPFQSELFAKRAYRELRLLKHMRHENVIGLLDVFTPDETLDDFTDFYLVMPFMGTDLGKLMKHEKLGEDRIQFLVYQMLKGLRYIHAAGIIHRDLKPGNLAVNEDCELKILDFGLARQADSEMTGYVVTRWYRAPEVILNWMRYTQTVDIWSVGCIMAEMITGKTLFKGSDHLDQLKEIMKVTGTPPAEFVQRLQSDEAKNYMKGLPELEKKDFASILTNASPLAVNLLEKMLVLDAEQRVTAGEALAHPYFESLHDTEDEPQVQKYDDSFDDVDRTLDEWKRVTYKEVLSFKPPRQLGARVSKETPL

CAMK1 = CAMK1 (Homo sapiens, UniProt Q14012)
MST3 = MST3 (Homo sapiens, UniProt Q9Y6E0)
MAPKAP-K3 = MAPKAP-K3 (Homo sapiens, UniProt Q16644)
HER4 = HER4 (Homo sapiens, UniProt Q15303)

SMILES: NCCCC[C@H](NC(=O)[C@H](CC(=O)O)NC(=O)[C@H](CC(=O)O)NC(=O)[C@H](CC(=O)O)NC(=O)[C@H](CC(=O)O)NC(=O)[C@H](CC(=O)O)NC(=O)[C@@H](CC(=O)O)NC(=O)CCCCCCCn1cnc2c(Br)c(Br)c(Br)c(Br)c21)C(=O)O [TBBI-OcA-(D-Asp)-(L-Asp)5-(L-Lys)-OH] (X1-[dD]DDDDDK-OH)
- remaining activity at 1 µM (TrkA): 111%
- remaining activity at 1 µM (EPH-A2): 80%
- remaining activity at 1 µM (MST4): 114%
- remaining activity at 1 µM (SRPK1): 61%
- remaining activity at 1 µM (CLK2): 24%
- remaining activity at 1 µM (MEKK1): 95%
- remaining activity at 1 µM (PAK6): 86%
- remaining activity at 1 µM (ROCK 2): 91%
- remaining activity at 1 µM (CDK9-Cyclin T1): 65%
- remaining activity at 1 µM (JAK2): 66%
- remaining activity at 1 µM (PKA): 100%
- remaining activity at 1 µM (IRAK4): 118%
- remaining activity at 1 µM (MARK2): 66%
- remaining activity at 1 µM (TIE2): 105%
- remaining activity at 1 µM (IRR): 55%
- remaining activity at 1 µM (ERK1): 110%
- remaining activity at 1 µM (HIPK1): 68%
- remaining activity at 1 µM (PIM2): 92%
- remaining activity at 1 µM (ZAP70): 97%
- remaining activity at 1 µM (IGF-1R): 116%
- remaining activity at 1 µM (p38g MAPK): 97%
- remaining activity at 1 µM (CAMK1): 105%
- remaining activity at 1 µM (MST3): 100%
- remaining activity at 1 µM (MAPKAP-K3): 69%
- remaining activity at 1 µM (HER4): 103%
